Test results published in patent US20090099826A1 (published 2009).

Experiments:
[1] = biological target: the molecule itself; assay: sedimentation equilibrium, analytical ultracentrifugation (self-association)
Experimental: To accurately determine the basal state of caspase-9 in solution, the molecular weight of caspase-9 was examined by sedimentation equilibrium analysis using analytical ultra-centrifugation (Table 2). […] In addition, this analysis confirms that the XIAP-BIR3 domain forms a stable hetero-dimer with the caspase-9 monomer (Table 2).
Analytical ultracentrifugation. Protein samples were prepared in 10 mM Tris-HCl, pH 8.0, 100 mM NaCl, and 2 mm DTT. All sedimentation equilibrium experiments were carried out at 4° C. using a Beckman Optima XL-A analytical ultracentrifuge equipped with an An60 Ti rotor and using six-channel, 12 mm path length, charcoal-filled Epon centerpieces and quartz windows. Data were collected at four rotor speeds (10,000, 15,000, 20,000, and 25,000 rpm) and represent the average of twenty scans using a scan step-size of 0.001 cm. Partial specific volumes and solution density were calculate using the Sednterp program. Data were analyzed using the WinNONOLIN program from the Analytical Ultracentrifugation Facility at the University of Connecticut (Storrs, Conn.).

[2] = biological target: XIAP-BIR3 point mutant P325G
[3] = biological target: XIAP-BIR3 point mutant G326E
[4] = biological target: XIAP-BIR3 point mutant L344A
[5] = biological target: XIAP-BIR3 point mutant H343A
[6] = biological target: T1, BIR3 domain of XIAP (residues 252-350), wild type
T1 chain: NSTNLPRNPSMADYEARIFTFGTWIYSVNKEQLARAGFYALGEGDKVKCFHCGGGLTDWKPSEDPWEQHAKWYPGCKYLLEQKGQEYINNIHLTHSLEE

B1: Procaspase-9 zymogen (residues 139-416) (enzyme, mammalian, UniProt P55211 139-416, looked up)
chain: VGALESLRGNADLAYILSMEPCGHCLIINNVNFCRESGLRTRTGSNIDCEKLRRRFSSLHFMVEVKGDLTAKKMVLALLELAQQDHGALDCCVVVILSHGCQASHLQFPGAVYGTDGCPVSVEKIVNIFNGTSCPSLGGKPKLFFIQACGGEQKDHGFEVASTSPEDESPGSNPEPDATPFQEGLRTFDQLDAISSLPTPSDIFVSYSTFPGFVSWRDPKSGSWYVETLDDIFEQWAHSEDLQSLLLRVANAVSVKGIYKQMPGCFNFLRKKLFFKTS
notes: range 139-416; Used here for self-association; also called unprocessed procaspase-9 zymogen
[1]
  binding result: no binding (tested: 20 µM)

B2: caspase-9, wild-type, processed catalytic domain (residues 139-315 and 316-416) (protein)
chain 1: VGALESLRGNADLAYILSMEPCGHCLIINNVNFCRESGLRTRTGSNIDCEKLRRRFSSLHFMVEVKGDLTAKKMVLALLELAQQDHGALDCCVVVILSHGCQASHLQFPGAVYGTDGCPVSVEKIVNIFNGTSCPSLGGKPKLFFIQACGGEQKDHGFEVASTSPEDESPGSNPEPD
chain 2: ATPFQEGLRTFDQLDAISSLPTPSDIFVSYSTFPGFVSWRDPKSGSWYVETLDDIFEQWAHSEDLQSLLLRVANAVSVKGIYKQMPGCFNFLRKKLFFKTS
[2]
  cleavage of procaspase-3 (C163A) by caspase-9, SDS-PAGE: led to loss of this inhibition as judged by the cleavage of procaspase-3 precursor
[3]
  cleavage of procaspase-3 (C163A) by caspase-9, SDS-PAGE: led to loss of this inhibition as judged by the cleavage of procaspase-3 precursor
[4]
  cleavage of procaspase-3 (C163A) by caspase-9, SDS-PAGE: led to loss of this inhibition as judged by the cleavage of procaspase-3 precursor
[5]
  cleavage of procaspase-3 (C163A) by caspase-9, SDS-PAGE: led to loss of this inhibition as judged by the cleavage of procaspase-3 precursor
[6]
  cleavage of procaspase-3 (C163A) by caspase-9, SDS-PAGE: incubation with the WT BIR3 protein (residues 252-350) resulted in the efficient inhibition of the activity (lane 2)
